Data on 36 molecules can be found in PMC10786891, “Massively parallel profiling of RNA-targeting CRISPR-Cas13d”.

Numbering of substitutions follows the chain as printed. Names may count otherwise.

T1: EsCas13d, nuclease-dead (Eubacterium siraeum, UniProt B0MS50, R295A;H300A;R849A;H854A)
T1 sequence: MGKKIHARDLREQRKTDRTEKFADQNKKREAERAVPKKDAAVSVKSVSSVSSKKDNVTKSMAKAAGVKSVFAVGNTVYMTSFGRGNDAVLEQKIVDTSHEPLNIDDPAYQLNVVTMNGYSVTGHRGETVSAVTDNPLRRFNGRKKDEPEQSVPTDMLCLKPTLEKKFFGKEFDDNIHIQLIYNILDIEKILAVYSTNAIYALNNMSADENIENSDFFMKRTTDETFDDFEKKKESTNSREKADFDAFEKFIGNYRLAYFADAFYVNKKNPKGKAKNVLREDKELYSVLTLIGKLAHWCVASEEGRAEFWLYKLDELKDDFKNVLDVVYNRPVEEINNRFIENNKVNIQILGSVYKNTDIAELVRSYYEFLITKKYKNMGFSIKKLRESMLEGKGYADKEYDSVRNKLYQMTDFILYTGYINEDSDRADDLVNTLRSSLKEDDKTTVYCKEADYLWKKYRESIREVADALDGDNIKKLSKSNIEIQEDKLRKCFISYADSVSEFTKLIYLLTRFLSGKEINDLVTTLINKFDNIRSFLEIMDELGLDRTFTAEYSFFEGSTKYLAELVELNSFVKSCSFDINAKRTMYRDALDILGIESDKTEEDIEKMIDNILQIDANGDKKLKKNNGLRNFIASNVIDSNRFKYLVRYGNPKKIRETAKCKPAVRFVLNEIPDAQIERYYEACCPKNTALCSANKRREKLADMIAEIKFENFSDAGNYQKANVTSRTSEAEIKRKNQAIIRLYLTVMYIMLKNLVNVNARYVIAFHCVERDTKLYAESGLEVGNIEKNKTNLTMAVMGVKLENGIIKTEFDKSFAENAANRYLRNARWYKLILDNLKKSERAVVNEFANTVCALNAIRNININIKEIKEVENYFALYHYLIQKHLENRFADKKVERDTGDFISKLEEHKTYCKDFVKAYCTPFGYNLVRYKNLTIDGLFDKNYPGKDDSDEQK

B1: target 2 MT 5'PFS UGC 3'PFS CGG (mixed)
RNA 1: CACCCGUGCAAAAUUGCAGGGGUCUAAAACCUUCUCCAAAUUGUUUCAUCCU
RNA 2: GGGAAUGGAUCCACAUCUACGAAUUCUGCAGGAUGAAACAAUUUGGAGAAGCGGAGAUCGGAAGAGCACACGU
B2: target 2 MT 5'PFS CUU 3'PFS CCC (mixed)
RNA 1: B1 RNA 1
RNA 2: B1 RNA 2 with U27C, G28U, C29U, G53C, G54C
B3: target 2 MT 5'PFS UUA 3'PFS AAA (mixed)
RNA 1: B1 RNA 1
RNA 2: B1 RNA 2 with G28U, C29A, C52A, G53A, G54A
B4: target 2 MT 5'PFS UGA 3'PFS ACA (mixed)
RNA 1: B1 RNA 1
RNA 2: B1 RNA 2 with C29A, C52A, G53C, G54A
B5: target 2 MT 5'PFS CUU 3'PFS CCA (mixed)
RNA 1: B1 RNA 1
RNA 2: B1 RNA 2 with U27C, G28U, C29U, G53C, G54A
B6: target 2 MT 5'PFS UAU 3'PFS UCU (mixed)
RNA 1: B1 RNA 1
RNA 2: B1 RNA 2 with G28A, C29U, C52U, G53C, G54U
B7: target 2 MT 5'PFS GAA 3'PFS CGC (mixed)
RNA 1: B1 RNA 1
RNA 2: B1 RNA 2 with U27G, G28A, C29A, G54C
B8: target 2 MT 5'PFS GCU 3'PFS CUG (mixed)
RNA 1: B1 RNA 1
RNA 2: B1 RNA 2 with U27G, G28C, C29U, G53U
B9: target 2 MT 5'PFS CUU 3'PFS CCG (mixed)
RNA 1: B1 RNA 1
RNA 2: B1 RNA 2 with U27C, G28U, C29U, G53C
B10: target 2 MT 5'PFS GAA 3'PFS CGG (mixed)
RNA 1: B1 RNA 1
RNA 2: B1 RNA 2 with U27G, G28A, C29A
B11: target 2 MT 5'PFS UUA 3'PFS AAG (mixed)
RNA 1: B1 RNA 1
RNA 2: B1 RNA 2 with G28U, C29A, C52A, G53A
B12: target 2 MT 5'PFS GAA 3'PFS AUU (mixed)
RNA 1: B1 RNA 1
RNA 2: B1 RNA 2 with U27G, G28A, C29A, C52A, G53U, G54U
B13: target 2 MT 5'PFS UCA 3'PFS UGU (mixed)
RNA 1: B1 RNA 1
RNA 2: B1 RNA 2 with G28C, C29A, C52U, G54U
B14: target 2 MT 5'PFS UUA 3'PFS AAU (mixed)
RNA 1: B1 RNA 1
RNA 2: B1 RNA 2 with G28U, C29A, C52A, G53A, G54U
B15: target 2 MT 5'PFS AAU 3'PFS AAG (mixed)
RNA 1: B1 RNA 1
RNA 2: B1 RNA 2 with U27A, G28A, C29U, C52A, G53A
B16: target 2 MT 5'PFS AGG 3'PFS AAA (mixed)
RNA 1: B1 RNA 1
RNA 2: B1 RNA 2 with U27A, C29G, C52A, G53A, G54A
B17: target 2 MT 5'PFS AUG 3'PFS CGC (mixed)
RNA 1: B1 RNA 1
RNA 2: B1 RNA 2 with U27A, G28U, C29G, G54C
B18: target 2 MT 5'PFS GCU 3'PFS CUA (mixed)
RNA 1: B1 RNA 1
RNA 2: B1 RNA 2 with U27G, G28C, C29U, G53U, G54A
B19: target 2 MT 5'PFS UGA 3'PFS ACC (mixed)
RNA 1: B1 RNA 1
RNA 2: B1 RNA 2 with C29A, C52A, G53C, G54C
B20: target 2 MT 5'PFS UUA 3'PFS AAC (mixed)
RNA 1: B1 RNA 1
RNA 2: B1 RNA 2 with G28U, C29A, C52A, G53A, G54C
B21: target 2 MT 5'PFS AAU 3'PFS AAA (mixed)
RNA 1: B1 RNA 1
RNA 2: B1 RNA 2 with U27A, G28A, C29U, C52A, G53A, G54A
B22: target 2 MT 5'PFS AAU 3'PFS AAU (mixed)
RNA 1: B1 RNA 1
RNA 2: B1 RNA 2 with U27A, G28A, C29U, C52A, G53A, G54U
B23: target 2 MT 5'PFS GAA 3'PFS CGA (mixed)
RNA 1: B1 RNA 1
RNA 2: B1 RNA 2 with U27G, G28A, C29A, G54A
B24: target 2 MT 5'PFS CGG 3'PFS AUA (mixed)
RNA 1: B1 RNA 1
RNA 2: B1 RNA 2 with U27C, C29G, C52A, G53U, G54A
B25: target 2 MT 5'PFS AAG 3'PFS AUC (mixed)
RNA 1: B1 RNA 1
RNA 2: B1 RNA 2 with U27A, G28A, C29G, C52A, G53U, G54C
B26: target 2 MT 5'PFS UGA 3'PFS AGC (mixed)
RNA 1: B1 RNA 1
RNA 2: B1 RNA 2 with C29A, C52A, G54C
B27: target 2 MT 5'PFS UGA 3'PFS ACU (mixed)
RNA 1: B1 RNA 1
RNA 2: B1 RNA 2 with C29A, C52A, G53C, G54U
B28: target 2 MT 5'PFS AAU 3'PFS AAC (mixed)
RNA 1: B1 RNA 1
RNA 2: B1 RNA 2 with U27A, G28A, C29U, C52A, G53A, G54C
B29: target 2 MT 5'PFS CGG 3'PFS AUC (mixed)
RNA 1: B1 RNA 1
RNA 2: B1 RNA 2 with U27C, C29G, C52A, G53U, G54C
B30: target 2 MT 5'PFS CGG 3'PFS AUU (mixed)
RNA 1: B1 RNA 1
RNA 2: B1 RNA 2 with U27C, C29G, C52A, G53U, G54U
B31: target 2 MT 5'PFS UGA 3'PFS ACG (mixed)
RNA 1: B1 RNA 1
RNA 2: B1 RNA 2 with C29A, C52A, G53C
B32: target 2 MT 5'PFS UUC 3'PFS CCC (mixed)
RNA 1: B1 RNA 1
RNA 2: B1 RNA 2 with G28U, G53C, G54C
B33: target 2 MT 5'PFS AAG 3'PFS AUU (mixed)
RNA 1: B1 RNA 1
RNA 2: B1 RNA 2 with U27A, G28A, C29G, C52A, G53U, G54U
B34: target 1 U3A,C7G (mixed)
RNA 1: CACCCGUGCAAAAAUGCAGGGGUCUAAAACUGAGCGGAUAACCUCUCUAUGG
RNA 2: GGGAAUGGAUCCACAUCUACGAAUUCGUACCAUAGAGAGGUUAUGCGCACACCGAGAUCGGAAGAGCACACGU
B35: target 1 insU 3' of 9,insG 3' of 8 (mixed)
RNA 1: B34 RNA 1
RNA 2: GGGAAUGGAUCCACAUCUACGAAUUCGUACCAUAGAGAGGUUAUUGCCGCUCACCGAGAUCGGAAGAGCACACGU
B36: target 1 U11G,A16U (mixed)
RNA 1: B34 RNA 1
RNA 2: B34 RNA 2 with A36U, U41G, G45C, A49U

The series concerns the target T1, EsCas13d, nuclease-dead. Kind of series: crRNA (strand 1, pre-loaded); Mg2+; 40 mM Tris-HCl pH 7.5, 150 mM NaCl, 6 mM MgCl2, 1 mM DTT, 0.1% Tween-20, 0.2 mg/ml BSA; 25 C; 10 min per concentration, then washed. The settings on record: tags: His6-TwinStrep-SUMO cleaved; N-terminal SNAP kept (SNAP-Surface 488); label: 3' end held by stalled T7 RNA polymerase.
As for B1, the Kd came out at 38 ± 6 nM.

Molecule B2 yielded a Kd of 18 ± 9 nM.

B3: binding was put at a Kd of 14.6 ± 2.7 nM.

In turn, B4 came in with a Kd of 9.1 ± 1 nM.

With B5, the affinity, expressed as Kd, was 8.9 ± 1.1 nM.

For the molecule B6, the Kd worked out at 81 ± 23 nM. This Kd lies about 9.1-fold higher than the previous one.

B7 had a Kd of 7.4 ± 0.5 nM.

Molecule B8 gave a Kd of 30 ± 11 nM.

As for B9, the Kd was found to be 6 ± 0.4 nM.

For the molecule B10, the Kd was 9.6 ± 1.5 nM.

For B11, binding was characterised by a dissociation constant (Kd) of 17.5 ± 1.8 nM.

Consider B12, for which binding was characterised by a dissociation constant (Kd) of 7.3 ± 1.1 nM.

For B13, the Kd was 7.8 ± 1.1 nM.

In turn, B14 displayed a Kd of 18 ± 5 nM. Compared with the last molecule, the Kd is about 2.3-fold higher.

As for B15, binding was put at a Kd of 5.5 ± 0.9 nM. Against the preceding molecule, the Kd is about 3.3-fold lower.

B16 returned a Kd of 4.3 ± 0.9 nM.

B17: binding was characterised by a dissociation constant (Kd) of 8.1 ± 0.8 nM.

B18 registered a Kd of 17 ± 5 nM.

Molecule B19 displayed a Kd of 16 ± 4 nM.

Molecule B20 registered a Kd of 18.7 ± 3.1 nM.

In turn, B21 had a Kd of 3.2 ± 0.5 nM.

B22 returned a Kd of 4.1 ± 0.6 nM.

Consider B23, for which the Kd was determined as 9.2 ± 1.7 nM.

As for B24, the Kd was 4.1 ± 0.5 nM.

The molecule B25 showed a Kd of 5.2 ± 0.9 nM.

As to B26, the Kd is 6 ± 0.9 nM.

In the case of B27, the Kd came out at 15.6 ± 3.5 nM.

In turn, B28 yielded a Kd of 5.2 ± 0.8 nM.

B29 gave a Kd of 6.8 ± 1.1 nM.

In the case of B30, the affinity, expressed as Kd, was 4.01 ± 0.28 nM.

Consider B31, for which the Kd came to 11.6 ± 1.9 nM.

B32 gave a Kd of roughly 29 nM.

With B33, binding was put at a Kd of 4.1 ± 0.5 nM.

B34 came in with a Kd of 6.64 ± 0.29 nM.

As to B35, the affinity, expressed as Kd, was 8.3 ± 0.5 nM.

Turning to B36, binding was put at a Kd of 82 ± 12 nM.
